Experimental data published in article PMC12225155.

Target: importin α5 (UniProt P52294)
Assay: co-immunoprecipitation, western blot
Conditions: reference: KIAA1429-WT; sites S1579

## KIAA1429 (VIRMA) (from UniProt Q69YN4) KIAA1429-SA (S1579A)
  binding against the reference: stronger
